Molecular target: insulin (human, UniProt P01308;P01308 25-54;90-110)
Experiment: bead-based flow cytometry

Sequence of insulin (P01308 25-54, chain 1 of 2): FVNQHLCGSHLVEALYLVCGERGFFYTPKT
Sequence of insulin (P01308 90-110, chain 2 of 2): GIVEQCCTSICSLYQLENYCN

Binder: GGTGGTGGGGGGGGTTGGTAGGGTGTCTTC (ssDNA) [IGA3 bt]
- Kd: 12.7 ± 1.1 µM

— doi:10.1101/2020.04.25.060004
